The text below walks through data of patent publication US20230272073A1.

This test concerns the target IGHV3-21/IGLV3-21^G110 BCR on murine TKO cells (human) (UniProt P01871). Description: flow cytometry dot plot, cell mix B (1:1 IGHV3-21/IGLV3-21^G110 BCR TKO cells and BCR-negative TKO cells), 5 µg/ml mAb01-01-APC and 2 µg/ml anti-human IgM-PE.

Sequence of IGHV3-21/IGLV3-21^G110 BCR on murine TKO cells (human) (P01871 other isoform, or with tags, fused parts or gaps, chain 1 of 2): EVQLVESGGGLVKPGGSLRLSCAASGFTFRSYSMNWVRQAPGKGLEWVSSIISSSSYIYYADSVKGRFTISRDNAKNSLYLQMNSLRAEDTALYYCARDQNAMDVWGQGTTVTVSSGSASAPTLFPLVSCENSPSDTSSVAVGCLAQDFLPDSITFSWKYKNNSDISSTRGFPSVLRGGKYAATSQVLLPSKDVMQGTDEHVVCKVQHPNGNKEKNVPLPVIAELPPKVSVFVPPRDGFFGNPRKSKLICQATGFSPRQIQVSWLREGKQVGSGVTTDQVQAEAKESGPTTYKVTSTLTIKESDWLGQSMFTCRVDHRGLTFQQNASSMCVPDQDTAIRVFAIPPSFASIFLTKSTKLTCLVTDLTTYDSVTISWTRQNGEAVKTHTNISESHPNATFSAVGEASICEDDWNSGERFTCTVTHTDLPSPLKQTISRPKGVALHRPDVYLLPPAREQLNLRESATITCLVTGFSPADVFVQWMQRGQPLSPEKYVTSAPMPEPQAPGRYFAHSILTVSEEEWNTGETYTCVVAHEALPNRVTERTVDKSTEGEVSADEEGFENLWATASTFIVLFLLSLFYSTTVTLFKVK
Sequence of IGHV3-21/IGLV3-21^G110 BCR on murine TKO cells (human) (light, as listed by the source, chain 2 of 2): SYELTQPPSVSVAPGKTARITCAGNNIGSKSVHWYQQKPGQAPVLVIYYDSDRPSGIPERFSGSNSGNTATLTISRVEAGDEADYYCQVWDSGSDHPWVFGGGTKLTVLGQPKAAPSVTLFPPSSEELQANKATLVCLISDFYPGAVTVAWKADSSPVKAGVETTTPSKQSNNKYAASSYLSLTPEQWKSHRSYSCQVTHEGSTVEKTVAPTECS

B1: mAb01-01 (antibody, mouse IgG1, kappa, V domains shown)
VH: QVQLQQSGPGLVQPSQSLSITCTVSGFSLTSYGIHWVRQSPGKGLEWLGVIWRGGGTDSNAAFMSRLSITKDNSKSQVFFKMNSLQADDTAIYYCARSRYDEEESMNYWGQGTSVTVSS
VL: QIVLTQSPASLSASVGETVTITCRASGNIHSYLAWYQQKQGKSPQLLVYNAKTLADGVPSRFSGSGSGTQYSLKINSLQPEDFGSYYCQHFWNTPPTFGAGTKLELKR
For the molecule B1, the share of gated cells (P1) in quadrant Q1 (anti-IgM-PE positive, mAb01-01-APC negative) came out at 42.2% and the share of gated cells (P1) in quadrant Q2 (anti-IgM-PE positive, mAb01-01-APC positive) came to 1.11%.
